Measurements reported in PMC8158962, “Modulation of fungal virulence through CRZ1 regulated F-BAR-dependent actin remodeling and endocytosis in chickpea infecting phytopathogen Ascochyta rabiei”.

Molecular target: T1, His-ArCRZ1 (Ascochyta rabiei, UniProt A0A163H1V7 1-755)
T1 sequence: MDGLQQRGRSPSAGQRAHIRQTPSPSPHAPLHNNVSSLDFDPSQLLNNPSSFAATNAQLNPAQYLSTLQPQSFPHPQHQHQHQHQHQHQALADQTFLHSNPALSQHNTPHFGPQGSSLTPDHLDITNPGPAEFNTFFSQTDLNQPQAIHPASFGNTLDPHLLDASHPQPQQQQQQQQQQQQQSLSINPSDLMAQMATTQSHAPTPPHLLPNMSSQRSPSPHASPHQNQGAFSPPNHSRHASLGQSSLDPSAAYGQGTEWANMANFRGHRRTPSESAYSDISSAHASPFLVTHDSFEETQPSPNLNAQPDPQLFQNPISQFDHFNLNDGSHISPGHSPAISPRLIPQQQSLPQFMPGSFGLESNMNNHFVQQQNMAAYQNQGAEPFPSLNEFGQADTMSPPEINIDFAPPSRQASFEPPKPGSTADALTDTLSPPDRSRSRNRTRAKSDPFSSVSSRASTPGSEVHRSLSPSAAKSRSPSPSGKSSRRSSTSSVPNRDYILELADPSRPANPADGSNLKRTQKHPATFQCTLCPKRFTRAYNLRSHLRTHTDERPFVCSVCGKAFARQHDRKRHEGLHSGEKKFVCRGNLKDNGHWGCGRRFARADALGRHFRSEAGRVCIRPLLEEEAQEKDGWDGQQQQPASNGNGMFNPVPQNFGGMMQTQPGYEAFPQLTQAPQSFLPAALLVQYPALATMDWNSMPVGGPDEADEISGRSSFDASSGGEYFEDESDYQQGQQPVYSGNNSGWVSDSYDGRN
Test: EMSA; 15 mM HEPES pH 7.6, 0.2 mM MgCl2, 35 mM KCl, 1 mM DTT, 1% glycerol, 1 mg poly(dI-dC) (so in the source), 10 ng labelled DNA, 30 uL, 25 min, room temperature; 6% native PAGE
Details: protein: recombinant; tags: His (pET28a(+)); label: 32P end label; blunt

B1: WT CDRE (GRF/GRR), 58 bp (dsDNA)
DNA 1: CTCCAGCCATCGAGCCCCACCACCAATTGGGCCGCCAGTGAGAGCCCCAAGGCCGTCC
DNA 2: GGACGGCCTTGGGGCTCTCACTGGCGGCCCAATTGGTGGTGGGGCTCGATGGCTGGAG
binding result: binds
